Blank lines part the entries; values can stand above or below the binder they belong to.
Tests used:
[1] = molecular target: T1, Macaca Fascicularis LEPR extracellular domain expressed with a C-terminal myc-myc-hexahistidine tag (Macaca fascicularis, UniProt Q9MYL0 22-837 (rhesus entry)); assay: SPR Biacore 4000, bsAb captured by anti-human Fc, 37 C
T1 construct: Monomeric reagent; the whole entry is the construct with its tag; also called mfLEPR-MMH
Experimental: (§1) Equilibrium dissociation constants (KD values) for LEPR and GP130 binding to purified anti-LEPR/GP130 bispecific antibodies were determined using a real-time surface plasmon resonance biosensor using a Biacore 4000 instrument. All binding studies were performed in 10 mM HEPES, 150 mM NaCl, 3 mM EDTA, and 0.05% v/v Surfactant Tween-20, pH 7.4 (HBS-ET) running buffer at 25° C. and 37° C. The Biacore sensor surface was first derivatized by amine coupling with a monoclonal mouse anti-human Fc antibody (GE, #BR-1008-39) to capture anti-LEPR/GP130 bispecific antibodies. […] Different concentrations of LEPR or GP130 reagents were first prepared in HBS-ET running buffer (100 nM-3.7 nM; 3-fold serial dilution) and were injected over anti-human Fc captured anti-LEPR/GP130 bispecific antibody surface for 4 minutes at a flow rate of 30 μL/minute, while the dissociation of bispecific antibody bound LEPR or GP130 reagent was monitored for 10 minutes in HBS-ET running buffer. Kinetic association (kₐ) and dissociation (kd) rate constants were determined by fitting the real-time binding sensorgrams to a 1:1 binding model with mass transport limitation using Scrubber 2.0c curve-fitting software. Binding dissociation equilibrium constants (KD) and dissociative half-lives (t ½) were calculated from the kinetic rate constants as: […]

[2] = molecular target: T2, human LEPR extracellular domain expressed with a C-terminal myc-myc-hexahistidine tag (human, UniProt P48357 22-839); assay: as above
T2 construct: Monomeric reagent; the whole entry is the construct with its tag; also called hLEPR-MMH; hLEPR.mmh
Experimental: as §1

[3] = molecular target: T1, Macaca Fascicularis LEPR extracellular …; assay: SPR Biacore 4000, bsAb captured by anti-human Fc, 25 C
Experimental: as §1

[4] = molecular target: T2, human LEPR extracellular domain …; assay: as above
Experimental: as §1

T2 sequence (P48357 other isoform, or with tags, fused parts or gaps): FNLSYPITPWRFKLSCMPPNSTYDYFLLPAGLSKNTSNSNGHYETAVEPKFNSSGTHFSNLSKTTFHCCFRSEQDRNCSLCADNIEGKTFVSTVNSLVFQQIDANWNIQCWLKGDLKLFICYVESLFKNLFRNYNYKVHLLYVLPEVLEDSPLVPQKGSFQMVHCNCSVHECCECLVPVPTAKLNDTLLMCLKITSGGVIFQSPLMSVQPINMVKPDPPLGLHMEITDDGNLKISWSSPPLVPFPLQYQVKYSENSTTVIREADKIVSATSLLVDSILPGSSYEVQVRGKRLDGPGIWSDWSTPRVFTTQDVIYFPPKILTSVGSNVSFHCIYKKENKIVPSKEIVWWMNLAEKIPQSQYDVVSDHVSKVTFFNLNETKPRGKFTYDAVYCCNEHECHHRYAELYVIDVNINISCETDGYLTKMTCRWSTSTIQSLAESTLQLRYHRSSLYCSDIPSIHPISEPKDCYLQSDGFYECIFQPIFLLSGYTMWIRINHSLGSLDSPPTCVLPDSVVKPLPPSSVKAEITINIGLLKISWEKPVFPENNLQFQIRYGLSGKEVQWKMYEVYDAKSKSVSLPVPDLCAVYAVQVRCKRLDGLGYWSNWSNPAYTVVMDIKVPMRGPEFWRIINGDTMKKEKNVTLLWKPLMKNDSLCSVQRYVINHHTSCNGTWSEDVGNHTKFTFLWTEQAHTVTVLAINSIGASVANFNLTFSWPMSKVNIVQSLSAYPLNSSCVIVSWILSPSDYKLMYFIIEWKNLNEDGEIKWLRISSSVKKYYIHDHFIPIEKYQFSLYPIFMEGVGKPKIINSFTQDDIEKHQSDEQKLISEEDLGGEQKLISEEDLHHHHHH
T1 sequence (Q9MYL0 other isoform, or with tags, fused parts or gaps): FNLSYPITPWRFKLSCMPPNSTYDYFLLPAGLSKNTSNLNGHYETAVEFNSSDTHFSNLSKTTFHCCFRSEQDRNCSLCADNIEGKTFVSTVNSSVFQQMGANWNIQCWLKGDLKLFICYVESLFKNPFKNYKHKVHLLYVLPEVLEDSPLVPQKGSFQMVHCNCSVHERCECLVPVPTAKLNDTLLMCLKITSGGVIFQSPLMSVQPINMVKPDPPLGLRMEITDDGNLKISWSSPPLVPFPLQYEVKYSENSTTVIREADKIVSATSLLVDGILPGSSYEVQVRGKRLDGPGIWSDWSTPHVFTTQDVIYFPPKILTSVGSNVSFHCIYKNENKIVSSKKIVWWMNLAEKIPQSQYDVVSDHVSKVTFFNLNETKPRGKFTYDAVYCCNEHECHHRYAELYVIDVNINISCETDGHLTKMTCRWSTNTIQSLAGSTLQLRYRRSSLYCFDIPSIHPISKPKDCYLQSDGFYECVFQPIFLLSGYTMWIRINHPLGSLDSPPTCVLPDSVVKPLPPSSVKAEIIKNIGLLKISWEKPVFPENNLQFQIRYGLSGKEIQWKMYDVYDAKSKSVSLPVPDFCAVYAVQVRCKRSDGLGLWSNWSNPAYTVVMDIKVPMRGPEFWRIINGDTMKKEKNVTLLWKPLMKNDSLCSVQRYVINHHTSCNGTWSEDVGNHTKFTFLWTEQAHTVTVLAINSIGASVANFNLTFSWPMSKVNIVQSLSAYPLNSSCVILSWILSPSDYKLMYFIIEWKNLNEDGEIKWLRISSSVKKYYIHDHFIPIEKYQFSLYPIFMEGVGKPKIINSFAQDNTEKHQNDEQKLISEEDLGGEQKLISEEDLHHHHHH

B2: bsAb19146D (bispecific antibody, V domains shown)
VH 1: QVQLVESGGGVVQPGRSLRLSCTASGFTFSSYAMYWVRQAPGKGLEWVSVIYYDGSYKYYADSVKGRFTISRDNSKNTLYLQMDSLRAEDTAVYYCASYNWNYWYFDFWGRGTLVTVSS
VH 2: QVQLVQSGPEVKKPGSSVKVSCKASGGTIDRNEITWVRQAPGQGLEWMGVIIPILGEAHYERKFQGRLTITMDESTSTAYMELSNLRSEDTAVYYCARERAARGYLDYWGQGTLVTVSS
VL: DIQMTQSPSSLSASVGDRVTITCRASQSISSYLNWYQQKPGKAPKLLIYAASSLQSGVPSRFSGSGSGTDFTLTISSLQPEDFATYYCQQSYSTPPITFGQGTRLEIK
notes: common light chain
- 100 nM mfLEPR-MMH Bound (RU) [1]: 164 RU
- Kd [1]: 5.68 nM
- koff [1]: 0.000568 s⁻¹
- kon [1]: 100000 M⁻¹ s⁻¹
- t½ [1]: 20 min
- 100 nM hLEPR-MMH Bound (RU) [2]: 69 RU
- Kd [2]: 21.3 nM
- koff [2]: 0.000825 s⁻¹
- kon [2]: 38700 M⁻¹ s⁻¹
- t½ [2]: 14 min
- 100 nM mfLEPR-MMH Bound (RU) [3]: 107 RU
- Kd [3]: 2.63 nM
- koff [3]: 0.000113 s⁻¹
- kon [3]: 42900 M⁻¹ s⁻¹
- t½ [3]: 102 min
- 100 nM hLEPR-MMH Bound (RU) [4]: 45 RU
- Kd [4]: 8.16 nM
- koff [4]: 0.000179 s⁻¹
- kon [4]: 22000 M⁻¹ s⁻¹
- t½ [4]: 64 min

B3: bsAb19143D (bispecific antibody, V domains shown)
VH 1: B2 VH 1
VH 2: QLQLQESGPGLVKPSETLSLICTVSGGSISSNNYYWGWIRQPPGKGLEWIGNLYGSGSTYYNPSLKSRVTISVDTSKNQFSLKLSFVTAADTAVYHCARWDTNGGAFDIWGQGTMVTVSS
VL: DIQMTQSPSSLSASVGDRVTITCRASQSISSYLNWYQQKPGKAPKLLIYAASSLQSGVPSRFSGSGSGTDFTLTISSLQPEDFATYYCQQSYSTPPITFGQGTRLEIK
notes: common light chain
- 100 nM mfLEPR-MMH Bound (RU) [1]: 171 RU
- Kd [1]: 5.74 nM
- koff [1]: 0.000551 s⁻¹
- kon [1]: 95900 M⁻¹ s⁻¹
- t½ [1]: 21 min
- 100 nM hLEPR-MMH Bound (RU) [2]: 72 RU
- Kd [2]: 21.5 nM
- koff [2]: 0.000763 s⁻¹
- kon [2]: 35500 M⁻¹ s⁻¹
- t½ [2]: 15 min
- 100 nM mfLEPR-MMH Bound (RU) [3]: 111 RU
- Kd [3]: 3.04 nM
- koff [3]: 0.000136 s⁻¹
- kon [3]: 44800 M⁻¹ s⁻¹
- t½ [3]: 85 min
- 100 nM hLEPR-MMH Bound (RU) [4]: 45 RU
- Kd [4]: 7.31 nM
- koff [4]: 0.000182 s⁻¹
- kon [4]: 24900 M⁻¹ s⁻¹
- t½ [4]: 64 min

B4: bsAb19142D (bispecific antibody, V domains shown)
VH 1: B2 VH 1
VH 2: EVQLVESGGGLVQPGGSLRLSCAASGLTFSSYEMNWVRQAPGKGLEWVSHISSAGSTKYYADSVKGRFTISRDNAKNSLFLQMNSLRAEDTAIYYCAGYNYAYYYFGVDVWGQGTTVTVSS
VL: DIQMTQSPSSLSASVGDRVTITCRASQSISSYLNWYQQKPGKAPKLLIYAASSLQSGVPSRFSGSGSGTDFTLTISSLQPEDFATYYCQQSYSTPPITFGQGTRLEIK
notes: common light chain
- 100 nM mfLEPR-MMH Bound (RU) [1]: 172 RU
- Kd [1]: 5.57 nM
- koff [1]: 0.000529 s⁻¹
- kon [1]: 94900 M⁻¹ s⁻¹
- t½ [1]: 22 min
- 100 nM hLEPR-MMH Bound (RU) [2]: 74 RU
- Kd [2]: 18.6 nM
- koff [2]: 0.000633 s⁻¹
- kon [2]: 34000 M⁻¹ s⁻¹
- t½ [2]: 18 min
- 100 nM mfLEPR-MMH Bound (RU) [3]: 112 RU
- Kd [3]: 2.74 nM
- koff [3]: 0.000126 s⁻¹
- kon [3]: 45900 M⁻¹ s⁻¹
- t½ [3]: 92 min
- 100 nM hLEPR-MMH Bound (RU) [4]: 46 RU
- Kd [4]: 7.76 nM
- koff [4]: 0.000175 s⁻¹
- kon [4]: 22500 M⁻¹ s⁻¹
- t½ [4]: 66 min

The remaining lines, values ahead:

- 100 nM mfLEPR-MMH Bound (RU) [1]: 163 RU
- Kd [1]: 5.42 nM
- koff [1]: 0.000559 s⁻¹
- kon [1]: 103000 M⁻¹ s⁻¹
- t½ [1]: 21 min
- 100 nM hLEPR-MMH Bound (RU) [2]: 67 RU
- Kd [2]: 21.2 nM
- koff [2]: 0.000762 s⁻¹
- kon [2]: 35800 M⁻¹ s⁻¹
- t½ [2]: 15 min
- 100 nM mfLEPR-MMH Bound (RU) [3]: 103 RU
- Kd [3]: 2.93 nM
- koff [3]: 0.000128 s⁻¹
- kon [3]: 43600 M⁻¹ s⁻¹
- t½ [3]: 90 min
- 100 nM hLEPR-MMH Bound (RU) [4]: 41 RU
- Kd [4]: 7.09 nM
- koff [4]: 0.000171 s⁻¹
- kon [4]: 24100 M⁻¹ s⁻¹
- t½ [4]: 68 min
B1: bsAb19139D (bispecific antibody, V domains shown)
VH 1: B2 VH 1
VH 2: QVQLVESGGGVVQPGGSLRLSCAASGFTFSTYDIHWVRQAPGKGLEWVAVISFDGSNRNYGDSVKGRFTISRDNSDNTLFLEMNNLRFEDTAVYYCAKEGYGVDFQHWGQGTLVTVSS
VL: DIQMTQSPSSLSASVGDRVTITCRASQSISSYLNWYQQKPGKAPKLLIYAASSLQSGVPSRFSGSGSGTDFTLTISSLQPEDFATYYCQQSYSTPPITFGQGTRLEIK
notes: two different heavy chains with a common light chain

- 100 nM mfLEPR-MMH Bound (RU) [1]: 178 RU
- Kd [1]: 5.22 nM
- koff [1]: 0.000517 s⁻¹
- kon [1]: 99100 M⁻¹ s⁻¹
- t½ [1]: 22 min
- 100 nM hLEPR-MMH Bound (RU) [2]: 78 RU
- Kd [2]: 16.2 nM
- koff [2]: 0.000597 s⁻¹
- kon [2]: 36800 M⁻¹ s⁻¹
- t½ [2]: 19 min
- 100 nM mfLEPR-MMH Bound (RU) [3]: 114 RU
- Kd [3]: 3.02 nM
- koff [3]: 0.000124 s⁻¹
- kon [3]: 41100 M⁻¹ s⁻¹
- t½ [3]: 93 min
- 100 nM hLEPR-MMH Bound (RU) [4]: 48 RU
- Kd [4]: 6.48 nM
- koff [4]: 0.000159 s⁻¹
- kon [4]: 24600 M⁻¹ s⁻¹
- t½ [4]: 73 min
B5: bsAb19144D (bispecific antibody, V domains shown)
VH 1: B2 VH 1
VH 2: QVQLVQSGAEVKKPGASVKVSCKASGYTFTSLGISWVRQAPGQGLEWMGWISAYSGNRDYAQKFQGRVTMTTDTSTSTAYMELRSLRSDDTAVYYCARSLRFDYWGQGTLVTVSS
VL: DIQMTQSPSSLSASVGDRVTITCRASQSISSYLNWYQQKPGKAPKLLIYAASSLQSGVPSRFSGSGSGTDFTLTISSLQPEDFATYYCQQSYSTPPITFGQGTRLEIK
notes: common light chain

— patent US20240158497A1 (published 2024)
